Usually Kd stands for the concentration at which binding is half-saturated. The low end stands for higher affinity, the high end for lower affinity. For orientation: EC50 means the concentration needed to bring the measured effect to its halfway point. By IC50 is commonly meant the point on the concentration scale where inhibition reaches its midpoint. A low value points to greater potency.

This is an account of results in US20260365731 (published 2026).

Sequences and labels used below:
T1: human VEGFA (human, UniProt P15692)
T1 chain: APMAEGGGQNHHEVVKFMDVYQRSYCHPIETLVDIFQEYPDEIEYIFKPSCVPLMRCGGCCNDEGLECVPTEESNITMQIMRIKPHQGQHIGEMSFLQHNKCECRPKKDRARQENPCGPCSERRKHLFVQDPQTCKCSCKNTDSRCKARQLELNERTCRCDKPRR

B1: Antibody 28 PD-1 arm (antibody, V domains shown)
VH: QGQLVQSGAEVKKPGASVKVSCKASGYTFTDYEMHWVRQAPIHGLEWIGVIESETGGTAYNQKFKGRVTITADKSTSTAYMELSSLRSEDTAVYYCAREGITTVATTYYWYFDVWGQGTTVTVSS
VL: DVVMTQSPLSLPVTLGQPASISCRSSQSIVHSNGNTYLEWYLQKPGQSPQLLIYKVSNRFSGVPDRFSGSGSGTDFTLKISRVEAEDVGVYYCFQGSHVPLTFGQGTKLEIK
B2: JS001 (TAB001, toripalimab) (antibody, V domains shown)
VH: B1 VH
VL: B1 VL
B3: Antibody 23 PD-1 arm (antibody, V domains shown)
VH: B1 VH
VL: B1 VL
B4: Antibody 27 PD-1 arm (antibody, V domains shown)
VH: B1 VH
VL: B1 VL
B5: Antibody 24 PD-1 arm (antibody, V domains shown)
VH: B1 VH
VL: B1 VL
B6: DotAb4 (designed binder)
chain: EVQLVESGGGLVQPGGSLRLSCAISGFSLAATDIDWVRQAPGKGLEWVARIFSPSDFTDYADSVKGRFTISADTSKNTVYLQMNSLRAEDTAVYYCGRPDTYAYNIFLDTPTYNALHYRGQGTLVTVSS

“And” between values parts separate entries of the source, which are not always exact repeats. Identical values can stand only once.

The target in one assay is T2, human PD-1 (human, UniProt Q15116). The assay can be described thus: BLI. (Biolayer interferometry detects binding as a change in optical thickness at a sensor tip.)
B1: the Kd worked out at 1.67 nM.

In the case of B2, binding was put at a Kd of 0.584 nM.

As for B3, the Kd turned out to be 1.73 nM.

For the molecule B4, the Kd stood at 0.864 nM.

B5 gave a Kd of 1.21 nM.

The next assay deals with T2, human PD-1. As to the kind of experiment: ELISA.
With B1, the EC50 worked out at 59.5 nM.

Regarding B3, the EC50 worked out at 6.93 nM. This EC50 is about 8.6-fold lower than that of the molecule before.

The molecule B4 had an EC50 of 23.8 nM.

Regarding B5, the response was half-maximal at 14.6 nM (EC50). This EC50 lies about 1.6-fold lower than the previous one.

Another assay deals with T2, human PD-1. The assay can be described thus: competition ELISA, PD-L1 blocking. (In general: In an ELISA, binding on a coated surface is turned into a signal by an enzyme label.)
Consider B1, for which the IC50 came to 573 nM. This lies in the sub-micromolar range.

For the molecule B2, the IC50 was 255 nM and 135 nM.

As to B3, the IC50 was 293 nM.

Regarding B4, the IC50 stood at 297 nM. This IC50 and that of the molecule before are within 1.5-fold of each other.

B5 returned an IC50 of 243 nM.

The next assay addresses T1, human VEGFA. As to the kind of experiment: BLI.
Molecule B6 returned a Kd of less than 0.0266 nM.

The target in another assay is T1, human VEGFA. As to the kind of experiment: SPR. Background: Surface plasmon resonance follows binding to a sensor surface in real time, without labels.
Turning to B2, the binding result is recorded as “no binding”.
